According to the nanobody polyreactivity screen of Harvey et al. (2022):

Assay: yeast display, Sf9 membrane polyspecificity reagent, FACS + sequencing; frameworks hold sequencing errors
How it was run: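 In a synthetic yeast display library (Saccharomyces cerevisiae BJ5465), nanobody expression was induced with galactose for 36–48 hours. FACS gates were set low and high (top ~1%) using anti-HA fluorescence for expression and streptavidin fluorescence for binding of the Sf9 membrane reagent. Each polyreactivity label is drawn from the gate of origin.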

Sequence	polyreactivity (PSR sort gate)
QVQLVESGGGLFQAGGSLRLICAASGRTFVVYAMGSYRQAPGKEWELVAAISWSGGRTYYADSVKGRFTMSRDNAKNTVYLQMNTLKPEDTAVYYCPAEVYLYKYVYYYWGQGTQVTVSS	high polyreactivity
QVQLVESGGGLFQAGGSLRLSCAASGFTFARYAMGWYRQAPGKEWELVARISWSGGSTYYADSVKGRFTISRDYAKNTFYLQMYSLKPQVTEVYYCAADGWYYRYPRDDYWGQGTQVTVSS	low polyreactivity
QVQLVESGGGLFQAGGSLRLSCAASGFTFDYYAMGWYRPAPGKERELVAAISRAGSTNYADSVKGRFTISRDNAKNTVYLQMNSLKPEDTAVYYCNKGYHSWSRLSQFGWSYDYWGQGTQVTVSS	high polyreactivity
QVQLVESGGGLFQAGGSLRLSCAASGFTFGIYAMGWYRQAPGKERELVAAITKRGGITSYADSVKGRFTISRDNAKNTVYLQMNSLKPEDTAVYYCAKIGGFLSYWSGDYWGQGTQVTVSS	low polyreactivity
QVQLVESGGGLFQAGGSLRLSCAASGFTFSNYAMGWYRKAPGKERELVAAITRRGGRTRYADSVKGRFTISRDNAKNTVYLQMNSLKPEDTAVYYCARSRYRYIVTTLYLYDYWGQGTQVTVSS	high polyreactivity
QVQLVESGGGLFQAGGSLRLSCAASGFTFVYYAMGWYRQAPGKERELVASISGGGRTYYADSVKGRFTISRENAKNTGYLQMNSLIPEDTAVYYCAARYWDYRNRWLYVYWGQGTQLTVSS	high polyreactivity
QVQLVESGGGLFQAGGSLRLSCAASGFTFYVYAMGWYRQAPGKERELVAAISSGGGSTYYADSVKGRFTISRDNAKNTVYLQMNSLKPEDTAVYYCNKLFPGTYDGAHGYWGQGTQVTVSS	low polyreactivity
QVQLVESGGGLFQAGGSLRLSCAASGIIFAVYDMGWYRQAPGKERELVAAISWSGGSTYYADSVKGRFTISRDNAKNTVYLQMNSLKPEDTAVYYCNRVRYSRLGDYWGQGSQVTVSS	high polyreactivity
QVQLVESGGGLFQAGGSLRLSCAASGIIFYYNTMGWYRQAPGKDRELVAAISQRGRSTYYADSVKGRFTISRDNAKNTVYFHLNSLKPEDTAVFYCNKLRNSHGFRYDYWGQGTQVTVSS	high polyreactivity
QVQLVESGGGLFQAGGSLRLSCAASGLIIAYYAMRWYRQAPGKERELVAAISSVGSTYYADSVNGRFTISRDNAKNTVYLQMNSLKPEDTAVYYCAAAPRGGMYYWGQGTQVTVSS	high polyreactivity
QVQLVESGGGLFQAGGSLRLSCAASGLTFGGNAMGWYRHAPGKERELVAAISSGGSTNYADSVKGRFTISRDNAKNTVYLQMNSLKPEDTAVYYCAVEAWSVPPYDYWGQGTQVTVSS	low polyreactivity
QVQLVESGGGLFQAGGSLRLSCAASGNTFRRNTMGWYRQAPPKERELVATISWRGGKTFYADSVKGRFTISRDNAKNTVYLQMNSLKPEDTAVYYCAADTRTQTYIYGYWGQGTQVTVSS	high polyreactivity
QVQLVESGGGLFQAGGSLRLSCAASGRIFIVITMGWYRQAPGKERELVATIDSDGDTNYADSVKGRFTISRDNAKNTVYLQMNSLKPEDTAVYYCAAYYTHTLAALKGGRMDYWGQGTQVTVSS	low polyreactivity
QVQLVESGGGLFQAGGSLRLSCAASGRIFKYAMGWYRQAPGKERELVAAISSSGGRTYYADSVKGRFTISRDNAKNTVYLQMNSLKPEDTAVYYCAATSYNTQSAFYYWGQGTQVTVSS	high polyreactivity
QVQLVESGGGLFQAGGSLRLSCAASGRIFRGYAMGWYRQAPGKERELVAAIDRVGRTKYADSVKGRFTISRDNAKNTVYLHMNSLKPEDTAVYYCAAKASRVDWGYGYWGQGTQVTVSA	high polyreactivity
QVQLVESGGGLFQAGGSLRLSCAASGRILNINAMGWYRQAPGKERELVAAITWRGGRTFYADSVKGRFTISRDNAKNTVYLQMNSLKPEDTAVYYCAASSNTWYPTGYYWGQGTQVTVSS	high polyreactivity

Sequence	polyreactivity (PSR sort gate)
QVQLVESGGGLFQAGGSLRLSCAASGRIVGLYAMGWYRPAPGKERELVAAISRGGSTNYADSVKGRFTISRDNAKNTVYLQMNSQKPEDPAVYYCNARYVKYYTYLYNYDYWGQGTQVTVSS	high polyreactivity
QVQLVESGGGLFQAGGSLRLSCAASGRTFRVYAMGWYRQAPGKEREFVAAISYSGGRTNYADSVKGRFTISRDYAKNTVYLQKNSLKPEDTAVYYCAARYTWAEGDYWGQGTQVTVSS	low polyreactivity
QVQLVESGGGLFQAGGSLRLSCAASGRTLPAYAMGWYRQAPGKERELVAAISWGGGSTYYADSVKGRFTISRDNAKNTVYLQMNSLKPEDTSVYYCAVAGYWFAVAEYEYWGQGTQVTVSS	low polyreactivity
QVQLVESGGGLFQAGGSLRLSCAASGSIFGHYAMGWYRQAPGKERELVAAISYSGGSTYYADSVKGRFTISRDNAKNTVYLHMNSLKPEDTAVYYCNADLYDAGSEMDYWGQGTQVTVSS	high polyreactivity
QVQLVESGGGLFQAGGSLRLSCAASGSIFRYNTMGWYRHAPGKESELVARISSGGSTYYADSVKGRFTISRDNAKNTVYLQMNSLKPEDTAVYYCAAVSRHRGWDRYYWGQGTQVTVSS	high polyreactivity
QVQLVESGGGLFQAGGSLRLSCAASGSIFSWNDIGRYIQAPGKERELVAAITSGGSTYYADSVKGRFTISRDNAKNTVYLQMNSLKPEDTAVYYCAAGQDLHDFDYWGQGTQVTVSS	low polyreactivity
QVQLVESGGGLFQAGGSLRLSCAASGSIFWSYAMGWYRQAPGKERELVAAISSGGSTNYADSVKGRFTISRDNAKNTVYLQMNSLKPEDTAVYYCNAVGAKGYVKGFDYWGQGTQVTVSS	low polyreactivity
QVQLVESGGGLFQAGGSLRLSCAASGSIFWSYAMGWYRQAPGKERELVAAISSGGSTNYADSVKGRFTISRDNAKNTVYLQMNSLQPEDTAVYYCNALGAKGYVKGFDYWGQGTQVTVSS	low polyreactivity
QVQLVESGGGLFQAGGSLRLSCAASGSSFPFYAMGWYRQAPGKERELVASISSGGSTNYADSVKGRFTISRDNAKNTVYLQMNSLKPEDTAVYYCNADVPYRWDTWFQVVYPESYDYWGQGTQVTVSS	low polyreactivity
QVQLVESGGGLFQAGGSLRLSCAASGSTFAVYAMGWYRQAPGKERELVAVISWSDGRTYYADSVKGRFTISRDNAKNTVYLQMNSLKPEDTAVYYCNARLDTFVPRYGYWGHGTQVTVSS	high polyreactivity
QVQLVESGGGLFQAGGSLRLSCAASGSTFDVNTMGGYRQAPGKERELVAAIRLRGGSTYYADSVKGRFTISRYNAKNTVYLQMNSLKPEDTAVYYCAARYPWVYYDFDYWGQGTQVTVSS	low polyreactivity
QVQLVESGGGLFQAGGSLRLSCAASGSTFKRYAMGWYRQAPGKERELVAAITLSGGNTYYADSVKGRFTISRYNAKNTVYLQMNSLKPEDTAVYYCAARRYRGYDYWGQGTQVTVSS	high polyreactivity
QVQLVESGGGLFQAGGSLRLSCAASGSTLWRNAMGWYRQATGKERELVAAITRRGGITYYADSVKGRFTISRDNAKNTVYLQMNSLKPEDTAVYYCNAVRSTDGSDYWGQGTQVTVSS	high polyreactivity
QVQLVESGGGLFQAGGSLRLSCAASGYTFPLYDMGWYRQAPGKERELVADINIGGASTYYADSVKGRFTISRDNAKNTVNLQMNSLKPEDTAVYYCAKEYNDGYFPTFDYDYWGQGTQVTVSS	low polyreactivity
QVQLVESGGGLFQAGGSLRLSCAASVSIFSWYTMGWYRQAPGKERELDAAITSSGGSTYYADSVKGRFTISRDNAKNTVYLQMNSLKPEDTAVYYCAAKSWFYYLHRPYVRRYDYWGQGTQVTVSS	high polyreactivity
QVQLVESGGGLFQAGGSLRLSCADYGSTFRTYVMGWYRQAPGKESEFVAAITNGISTNYADSVKGRFTISRDNAKYTFYLQMNSLKPEDTAVYYCAARVRRGSTQAQYYYWGQGTQVTVSS	high polyreactivity
